Read-outs that look alike come from different tables or passages of the source.
How the values were obtained:
[1] = 40° C. and 75% relative humidity, over 3 months
Procedure: Compositions containing varying amounts of protonated irinotecan, as well as differing in the amount of TFA versus HCl salt were examined.
Samples were taken and analyzed on a periodic basis over the course of the studies.
FIG. 2 and FIG. 3 show another set of data obtained from the sample containing >99% HCl salt (<1% free base, squares) and a sample consisting of 86% total salts (14% free base, diamonds) that were stored at 40° C. and 75% relative humidity. […] The increase in smaller PEG species is indicative of decomposition of the PEG backbone to provide multiple PEG species.

[2] = Aqueous hydrolysis at pH 10; details: pH 10, 20° C., within 24 hours
Procedure: (§1) Experiments were performed to determine the fate of the irinotecan-containing PEG species in 4-arm-PEG-Gly-Irino-20K mixed TFA.chloride salt under transesterification (K2CO3 in CH3OH, 20° C.) and aqueous hydrolysis (pH 10, 20° C.) conditions.

[3] = Transesterification of irinotecan-containing PEG species; details: K2CO3 in CH3OH, 20° C., after 45 minutes
Procedure: as §1

Row | Substance | increase in free irinotecan (stability with respect to hydrolysis) [1] | increase in smaller PEG species (PEG backbone decomposition) ([1]; listed as HCl salt) | increase in smaller PEG species (PEG backbone decomposition) ([1]; listed as hydrochloride salt) | free irinotecan (after 4 weeks at 40° C.) [%] | total product related species (after 4 weeks at 40° C.) [%] | free irinotecan (initial value, before storage) [%] | total product related species (initial value, before storage) [%] | aqueous hydrolysis reaction completion [2] [%] | transesterification reaction completion [3] [%]
1 | Pentaerythritolyl-4-Arm-(PEG-1-Methylene-2Oxo-Vinylamino Acetate Linked-Irinotecan)-20K [listing 1 of 2 here] | greater hydrolytic stability than either the free base or mixed TFA.hydrochloride salt | more prone to PEG backbone decomposition than the mixed salt sample containing 14% free base | greater degree of backbone degradation | 1.25 | 97.0 | 0.4 | 98.7 | – | –
2 | Pentaerythritolyl-4-Arm-(PEG-1-Methylene-2Oxo-Vinylamino Acetate Linked-Irinotecan)-20K [listing 2 of 2 here] | – | – | – | – | – | – | – | > 99 | > 99
